Assay results as given in PMC10318897, “The structure of Leptospira interrogans GAPDH sheds light into an immunoevasion factor that can target the anaphylatoxin C5a of innate immunity” (Frontiers in Immunology, 2023).

Columns and labels:
[1] = test system: NC(=O)c1ccc[n+]([C@@H]2O[C@H](COP(=O)(O)OP(=O)(O)OC[C@H]3O[C@@H](n4cnc5c(N)ncnc54)[C@H](O)[C@@H]3O)[C@@H](O)[C@H]2O)c1; test: purified protein; conditions: 2 mM G3P, 5 mM phosphate, 40 mM Tris-HCl pH 8.5, 2 mM EDTA, 25 °C
[2] = test system: O=C[C@H](O)COP(=O)(O)O; test: purified protein; conditions: 2 mM NAD+, 5 mM phosphate, 40 mM Tris-HCl pH 8.5, 2 mM EDTA, 25 °C, fit with substrate inhibition

Q: Which results are given for “LiGAPDH (Leptospira interrogans serovar Copenhageni str. Fiocruz L1-130)”?
A: Km [1]: 81 ± 6 µM; kcat [1]: 44.2 ± 0.9 s⁻¹; kcat/Km [1]: 543000 ± 44000 M⁻¹ s⁻¹; Km [2]: 600 ± 100 µM; kcat [2]: 70 ± 7 s⁻¹; kcat/Km [2]: 121000 ± 24000 M⁻¹ s⁻¹
